Molecular target: protein A from Staphylococcus aureus (Staphylococcus aureus) (UniProt P38507)
Assay: fluorescence intensity of the solution left after immobilization (plate reader); solutions used for functionalization with FITC antibody analysed after the immobilization process on substrate with and without protein A; VICTOR3 plate reader; calibration curve to quantify the antibody that remained in solution

CD4 (VIT4)-FITC mouse anti-human antibody (Miltenyi Biotec)
percent of the starting antibody solution immobilised: < 60%

Reference: paper PMC8538552
